Source: FireProtDB (doi:10.1021/acs.biochem.7b00571)

B1: Salicylic acid-binding protein 2, Q6RYA0 (parent)
chain: MKEGKHFVLVHGACHGGWSWYKLKPLLEAAGHKVTALDLAASGTDLRKIEELRTLYDYTLPLMELMESLSADEKVILVGHSLGGMNLGLAMEKYPQKIYAAVFLAAFMPDSVHNSSFVLEQYNERTPAENWLDTQFLPYGSPEEPLTSMFFGPKFLAHKLYQLCSPEDLALASSLVRPSSLFMEDLSKAKYFTDERFGSVKRVYIVCTEDKGIPEEFQRWQIDNIGVTEAIEIKGADHMAMLCEPQKLCASLLEIAHKYN

Variants of: B1
Conditions: Nicotiana tabacum; pH 7.2; 4 °C; Urea; Fluorescence; BES; reversible: yes; structure 1Y7I; whole UniProt chain shown

For MKEGKHFVLVHGACHGGWSWYKLKPLLEAAGHKVTALDLAASGTDLRKIEELRTLYDYTLPLMELMESLSADEKVILVGHSLGGMNLGLAMEKYPQKIYAAVFLAAFMPDSVHNSSFVLEQYNERTPAENWLDTQFLPYGSPEYPLTSMFFGPKFLAHKLYQLCSPEDLALASSLVRPSSLFMEDLSKAKYFTDERFGSVKRVYIVCTEDKGIPEEFQRWQIDNIGVTEAIEIKGADHMAMLCEPQKLCASLLEIAHKYN [E144Y], which “denaturant midpoint (higher = more stable)” value (“denaturant midpoint” for short) is on record?
The value was 2.4 M.

Which “denaturant midpoint” value does the source give for MKEGKHFVLVHGACHGGWSWYKLKPLLEAAGHKVTALDLAASGTDLRKIEELRTLYDYTLPLMELMESLSADEKVILVGHSLGGMNLGLAMEKYPQKIYAAVFLAAFMPDSVHNSSFVLEQYNERTPAENWLDTQFLPYGSPEMPLTSMFFGPKFLAHKLYQLCSPEDLALASSLVRPSSLFMEDLSKAKYFTDERFGSVKRVYIVCTEDKGIPEEFQRWQIDNIGVTEAIEIKGADHMAMLCEPQKLCASLLEIAHKYN [E144M] here?
Its value is 2 M.

For MKEGKHFVLVHGACHGGWSWYKLKPLLEAAGHKVTALDLAASGTDLRKIEELRTLYDYTLPLMELMESLSADEKVILVGHSLGGMNLGLAMEKFPQKIYAAVFLAAFMPDSVHNSSFVLEQYNERTPAENWLDTQFLPYGSPEEPLTSMFFGPKFLAHKLYQLCSPEDLALASSLVRPSSLFMEDLSKAKYFTDERFGSVKRVYIVCTEDKGIPEEFQRWQIDNIGVTEAIEIKGADHMAMLCEPQKLCASLLEIAHKYN [Y94F], which “denaturant midpoint” value is on record?
The value was 2.2 M.

For MKEGKHFVLVHGACHGGWSWYKLKPLLEAAGHKVTALDLAASGTDLRKIEELRTLYDYTLPLMELMESLSPDEKVILVGHSLGGMNLGLAMEKYPQKIYAAVFLAAFMPDSVHNSSFVLEQYNERTPAENWLDTQFLPYGSPEEPLTSMFFGPKFLAHKLYQLCSPEDLALASSLVRPSSLFMEDLSKAKYFTDERFGSVKRVYIVCTEDKGIPEEFQRWQIDNIGVTEAIEIKGADHMAMLCEPQKLCASLLEIAHKYN [A71P], which “denaturant midpoint” value is on record?
Its value is 1.9 M.

For MKEGKHFVLVHGACHGGWSWYKLKPLLEAAGHKVTALDLAASGTDLRKIEELRTLYDYTLPLMELMESLPADEKVILVGHSLGGMNLGLAMEKYPQKIYAAVFLAAFMPDSVHNSSFVLEQYNERTPAENWLDTQFLPYGSPEEPLTSMFFGPKFLAHKLYQLCSPEDLALASSLVRPSSLFMEDLSKAKYFTDERFGSVKRVYIVCTEDKGIPEEFQRWQIDNIGVTEAIEIKGADHMAMLCEPQKLCASLLEIAHKYN [S70P], which “denaturant midpoint” value is on record?
Its value is 2.4 M.

Which “denaturant midpoint” value does the source give for MKEGKHFVLVHGACHGGWSWYKLKPLLEAAGHKVTALDLAASGTDLRKIEELRTLYDYTLPLMELMESLSADEKVILVGHSLGGMNLGLAMEKYPQKIYAAVFLAAFMPDSVHNSSFVLEQYNERTPAENWLDTQFLPYGSPEEPLTSMFFGPKFLAHKLYQLSSPEDLALASSLVRPSSLFMEDLSKAKYFTDERFGSVKRVYIVCTEDKGIPEEFQRWQIDNIGVTEAIEIKGADHMAMLCEPQKLCASLLEIAHKYN [C164S] here?
The value was 0.9 M.

With MKEGKHFVLVHGACHGGWSWYKLKPLLEAAGHKVTALDLAASGTDLRKIEELRTLYDYTLPLMELMESLSADEKVILVGHSLGGMNLGLAMEKYPQKIYAAVFLAAFMPDSVHNSSFVLEQYNERTPAENWLDTQFLPYGPPEEPLTSMFFGPKFLAHKLYQLCSPEDLALASSLVRPSSLFMEDLSKAKYFTDERFGSVKRVYIVCTEDKGIPEEFQRWQIDNIGVTEAIEIKGADHMAMLCEPQKLCASLLEIAHKYN [S141P] as the variant, how does the “denaturant midpoint” value read?
The value was 2.2 M.

With MKEGKHFVLVHGACHGGWSWYKLKPLLEAAGHKVTALDLAASGTDLRKIEELRTLYDYTLPLMELMESLSADEKVILVGHSLGGMNLGLAMEKYPQKIYAAVFLAAFMPDSVHNSSFVLEQYNERTPAENWLDTQFLPYGNPEEPLTSMFFGPKFLAHKLYQLCSPEDLALASSLVRPSSLFMEDLSKAKYFTDERFGSVKRVYIVCTEDKGIPEEFQRWQIDNIGVTEAIEIKGADHMAMLCEPQKLCASLLEIAHKYN [S141N] as the variant, how does the “denaturant midpoint” value read?
The value was 1.8 M.

For MKEGKHFVLVHGACHGGWSWYKLKPLLEAAGHKVTALDLAASGTDLRKIEELRTLYDYTLPLMEFMESLSADEKVILVGHSLGGMNLGLAMEKYPQKIYAAVFLAAFMPDSVHNSSFVLEQYNERTPAENWLDTQFLPYGSPEEPLTSMFFGPKFLAHKLYQLCSPEDLALASSLVRPSSLFMEDLSKAKYFTDERFGSVKRVYIVCTEDKGIPEEFQRWQIDNIGVTEAIEIKGADHMAMLCEPQKLCASLLEIAHKYN [L65F], which “denaturant midpoint” value is on record?
Its value is 3.8 M.

With MKEGKHFVLVHGACHGGWSWYKLKPLLEAAGHKVTALDLAASGTDLRKIEELRTLYDYTLPLMELMESLSADEKVILVGHSLGGMNLGLAMEKYPQKIYAAVFLAAFMPDSVHNSSFVLEQYNERTPAENWLDTQFLPYGSPEEPLTSMFFGPKFLAHKLYQLCSPEDLALVSSLVRPSSLFMEDLSKAKYFTDERFGSVKRVYIVCTEDKGIPEEFQRWQIDNIGVTEAIEIKGADHMAMLCEPQKLCASLLEIAHKYN [A172V] as the variant, how does the “denaturant midpoint” value read?
Its value is 2.3 M.

Which “denaturant midpoint” value does the source give for MKEGKHFVLVHGACHGGWSWYKLKPLLEAAGHKVTALDLAASGTDLRKIEELRTLYDYTLPLMELMESLSADEKVILVGHSLGGMNLGLAMEKYPQKIYAAVFLAAFMPDSVHNSSFVLEQYNERTPAENWLDTQFLPYGSPEEPLTSMFFGPKFLAHKLYQLCSPEDLALASSLVRPSSLFMEDLSRAKYFTDERFGSVKRVYIVCTEDKGIPEEFQRWQIDNIGVTEAIEIKGADHMAMLCEPQKLCASLLEIAHKYN [K188R] here?
The value was 2.5 M.

With MKEGKHFVLVHGACHGGWSWYKLKPLLEAAGHKVTALDLAASGTDLRKIEELRTLYDYTLPLMELMESLSADEKVILVGHSLGGMNLGLAMEKYPQKIYAAVFLAAFMPDSVHNSSFVLEQYNERTPAENWLDTQFLPYGSPEEPLTSMFFGPKFLAHKLYQLCSPEDLALASSLVRPSSLFMEDLSKNKYFTDERFGSVKRVYIVCTEDKGIPEEFQRWQIDNIGVTEAIEIKGADHMAMLCEPQKLCASLLEIAHKYN [A189N] as the variant, how does the “denaturant midpoint” value read?
Its value is 2.6 M.

For MKEGKHFVLVHGACHGGWSWYKLKPLLEAAGHKVTALDLAASGTDLRKIEELRTLYDYTLPLMELMESLSADEKVILVGHSLGGMNLGLAMEKYPQKIYAAVFLAAFMPDSVHNSSFVLEQYNERTPAENWLDTQFLPYGSPEEPLTSMFFGPKFLAHKLYQLCPPEDLALASSLVRPSSLFMEDLSKAKYFTDERFGSVKRVYIVCTEDKGIPEEFQRWQIDNIGVTEAIEIKGADHMAMLCEPQKLCASLLEIAHKYN [S165P], which “denaturant midpoint” value is on record?
The value was 2.5 M.

For MKEGKHFVLVHGACHGGWSWYKLKPLLEAAGHKVTALDLAASGTDLRKIEELRTLYDYTLPLMELMESLSADEKVILVGHSLGGMNLGLAMEKYPQKIYAAVFLAAFMPDPVHNSSFVLEQYNERTPAENWLDTQFLPYGSPEEPLTSMFFGPKFLAHKLYQLCSPEDLALASSLVRPSSLFMEDLSKAKYFTDERFGSVKRVYIVCTEDKGIPEEFQRWQIDNIGVTEAIEIKGADHMAMLCEPQKLCASLLEIAHKYN [S111P], which “denaturant midpoint” value is on record?
The value was 1.7 M.

Which “denaturant midpoint” value does the source give for MKEGKHFVLVHGACHGGWSWYKLKPLLEAAGHKVTALDLAASGTDLRKIEELRTLYDYTLPLMELMESLSADEKVILVGHSLGGMNLGLAMEKYPQKIYAAVFLAAFMPDGVHNSSFVLEQYNERTPAENWLDTQFLPYGSPEEPLTSMFFGPKFLAHKLYQLCSPEDLALASSLVRPSSLFMEDLSKAKYFTDERFGSVKRVYIVCTEDKGIPEEFQRWQIDNIGVTEAIEIKGADHMAMLCEPQKLCASLLEIAHKYN [S111G] here?
Its value is 1.7 M.

Which “denaturant midpoint” value does the source give for MKEGKHFVLVHGACHGAWSWYKLKPLLEAAGHKVTALDLAASGTDLRKIEELRTLYDYTLPLMELMESLSADEKVILVGHSLGGMNLGLAMEKYPQKIYAAVFLAAFMPDSVHNSSFVLEQYNERTPAENWLDTQFLPYGSPEEPLTSMFFGPKFLAHKLYQLCSPEDLALASSLVRPSSLFMEDLSKAKYFTDERFGSVKRVYIVCTEDKGIPEEFQRWQIDNIGVTEAIEIKGADHMAMLCEPQKLCASLLEIAHKYN [G17A] here?
Its value is 2.1 M.

Which “denaturant midpoint” value does the source give for MKEGKHFVLVHGACHGGWSWYKLKPLLEAAGHKVTALDLAASGTDPRKIEELRTLYDYTLPLMELMESLSADEKVILVGHSLGGMNLGLAMEKYPQKIYAAVFLAAFMPDSVHNSSFVLEQYNERTPAENWLDTQFLPYGSPEEPLTSMFFGPKFLAHKLYQLCSPEDLALASSLVRPSSLFMEDLSKAKYFTDERFGSVKRVYIVCTEDKGIPEEFQRWQIDNIGVTEAIEIKGADHMAMLCEPQKLCASLLEIAHKYN [L46P] here?
Its value is 2.4 M.

With MKEGKHFVLVHGACHGGWSWYKLKPLLEAAGHKVTALDLAASGTDLRKIEELRTLYDYTLPLMELMESLSADEKVILVGHSLGGMNLGLAMEKYPQKIYAAVFLAAFMPDSVHNSSFVLEQYNERTPAENWLDTQFLPYGSPEEPLTSMFFGPKFLAHKLYHLCSPEDLALASSLVRPSSLFMEDLSKAKYFTDERFGSVKRVYIVCTEDKGIPEEFQRWQIDNIGVTEAIEIKGADHMAMLCEPQKLCASLLEIAHKYN [Q162H] as the variant, how does the “denaturant midpoint” value read?
The value was 2.4 M.

With MKEGKHFVLVHGACHGGWSWYKLKPLLEAAGHKVTALDLAASGTDLRKIEELRTLYDYTLPLMELMESLSADEKVILVGHSLGGMNLGLAMEKYPQKIYAAVFLAAFMPDSVHGSSFVLEQYNERTPAENWLDTQFLPYGSPEEPLTSMFFGPKFLAHKLYQLCSPEDLALASSLVRPSSLFMEDLSKAKYFTDERFGSVKRVYIVCTEDKGIPEEFQRWQIDNIGVTEAIEIKGADHMAMLCEPQKLCASLLEIAHKYN [N114G] as the variant, how does the “denaturant midpoint” value read?
The value was 2.5 M.

For MKEGKHFVLVHGACHGGWSWYKLKPLLEAAGHKVTALDLAASGTDLRKIEELRTLYDYTLPLMELMESLSADEKVILVGHSLGGMNLGLAMEKYPQKIYAAVFLAAFMPDSVHLSSFVLEQYNERTPAENWLDTQFLPYGSPEEPLTSMFFGPKFLAHKLYQLCSPEDLALASSLVRPSSLFMEDLSKAKYFTDERFGSVKRVYIVCTEDKGIPEEFQRWQIDNIGVTEAIEIKGADHMAMLCEPQKLCASLLEIAHKYN [N114L], which “denaturant midpoint” value is on record?
The value was 2 M.

With MKEGKHFVLVHGACHGGWSWYKLKPLLEAAGHKVTALDLAASGTDLRKIEELRTLYDYTLPLMELMESLSADEKVILVGHSLGGMNLGLAMEKYPQKIYAAVFLAAFMPDSVHNPSFVLEQYNERTPAENWLDTQFLPYGSPEEPLTSMFFGPKFLAHKLYQLCSPEDLALASSLVRPSSLFMEDLSKAKYFTDERFGSVKRVYIVCTEDKGIPEEFQRWQIDNIGVTEAIEIKGADHMAMLCEPQKLCASLLEIAHKYN [S115P] as the variant, how does the “denaturant midpoint” value read?
Its value is 1.9 M.

For MKEGKHFVLVHGACHGGWSWYKLKPLLEAAGHKVTALDLAASGTDLRKIEELRTLYDYTLPLMELMESLSADEKVILVGHSLGGMNLGLAMEKYPQKIYAAVFLAAFMPDSVHNASFVLEQYNERTPAENWLDTQFLPYGSPEEPLTSMFFGPKFLAHKLYQLCSPEDLALASSLVRPSSLFMEDLSKAKYFTDERFGSVKRVYIVCTEDKGIPEEFQRWQIDNIGVTEAIEIKGADHMAMLCEPQKLCASLLEIAHKYN [S115A], which “denaturant midpoint” value is on record?
Its value is 2.4 M.

With MKEGKHFVLVHGACHGGWSWYKLKPLLEAAGHKVTALDLAASGTDLRKIEELRTLYDYTRPLMELMESLSADEKVILVGHSLGGMNLGLAMEKYPQKIYAAVFLAAFMPDSVHNSSFVLEQYNERTPAENWLDTQFLPYGSPEEPLTSMFFGPKFLAHKLYQLCSPEDLALASSLVRPSSLFMEDLSKAKYFTDERFGSVKRVYIVCTEDKGIPEEFQRWQIDNIGVTEAIEIKGADHMAMLCEPQKLCASLLEIAHKYN [L60R] as the variant, how does the “denaturant midpoint” value read?
Its value is 2.7 M.
